Measurements from patent US20230295301A1 (SHANGHAI JUNSHI BIOSCIENCES, published 2023).
Substitutions are numbered along the chain they refer to.

T1: huCTLA-4 ECD (his-tag) (human, UniProt P16410 37-162)
T1 construct: also called HX1 hCTLA4 his; HX1 huCTLA4 his; not shown: his-tag
T1 sequence: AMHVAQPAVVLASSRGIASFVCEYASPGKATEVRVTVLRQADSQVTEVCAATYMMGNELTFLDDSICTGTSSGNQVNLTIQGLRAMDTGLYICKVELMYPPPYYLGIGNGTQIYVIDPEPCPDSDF

B1: HuJS007-107 (antibody, V domains shown)
VH: QVQLQESGPGLVKPSQTLSLTCAVSGYSITSGYYWNWIRQPPGKGLEWIGYIGYDGSNNYNPSLKNRVTMSVDTSKNQFSLKLSSVTAVDTAVYYCARDYYSGYFDSWGQGTTVTVSS
VL: DIVMTQSPDSLAVSLGERATINCKASQNVGTYVAWYQQKPGQPPKPLIYSTSYRYSGVPDRFSGSGSGTDFTLTISSLQAEDVAVYFCHQYDTYPLTFGQGTKLEIK
notes: 4B7 VH2-5 + 4B7VL8; constant regions not specified
B2: HuJS007-86 (antibody, V domains shown)
VH: B1 VH with T30S, P41F, I49M, N59Y, D99N
VL: DIQMTQSPSSLSASVGDRVTITCQASQNVGTYVAWYQQKPGKAPKPLIYSTSYRYSGVPSRFSGSGSGTDFTFTISSLQPEDIATYFCHQYDTYPLTFGAGTKLELK
notes: 1A5 VH6 + 4B7VL5; constant regions not specified
B3: HuJS007-85 (antibody, V domains shown)
VH: B1 VH with T30S, P41F, I49M, N59Y, D99N
VL: B2 VL with S10F, Q24R, D70E, F73L, I83F
notes: 1A5 VH6 + 4B7VL4; constant regions not specified
B4: huJS007-79 (antibody, human IgG1, kappa, V domains shown)
VH: B1 VH with T30S, N59Y, N66S, D99N
VL: EIVMTQSPATLSVSPGERATLSCRASQNVGTYVAWYQQKPGQAPRPLIYSTSYRYSGIPARFSGSGSGTEFTLTISSLQSEDFAVYYCHQYDTYPLTFGQGTKLEIKR
B5: HuJS007-87 (antibody, V domains shown)
VH: B1 VH with T30S, P41F, I49M, N59Y, D99N
VL: B1 VL with P46L, F87Y
notes: 1A5 VH6 + 4B7VL6; constant regions not specified
B6: HuJS007-82 (antibody, V domains shown)
VH: B1 VH with T30S, P41F, I49M, N59Y, D99N
VL: B1 VL with Q100A, I106L
notes: 1A5 VH6 + 4B7VL1; constant regions not specified
B7: HuJS007-88 (antibody, V domains shown)
VH: B1 VH with T30S, P41F, I49M, N59Y, D99N
VL: EIVMTQSPATLSVSPGERATLSCRASQNVGTYVAWYQQKPGQAPRPLIYSTSYRYSGIPARFSGSGSGTEFTLTISSLQSEDFAVYYCHQYDTYPLTFGQGTKLEIK
notes: 1A5 VH6 + 4B7VL7; constant regions not specified
B8: HuJS007-83 (antibody, V domains shown)
VH: B1 VH with T30S, P41F, I49M, N59Y, D99N
VL: B2 VL with Q24R, A43V, F73L, I83V
notes: 1A5 VH6 + 4B7VL2; constant regions not specified
B9: HuJS007-104 (antibody, V domains shown)
VH: B1 VH
VL: B2 VL
notes: 4B7 VH2-5 + 4B7VL5; constant regions not specified
B10: HuJS007-70 (antibody, V domains shown)
VH: B1 VH with G26A, P41H, N66S, M70I, V72R, V89A, V114L
VL: B7 VL
notes: 4B7 VH2-4 + 4B7VL7; constant regions not specified
B11: HuJS007-77 (antibody, V domains shown)
VH: B1 VH with T30S, N59Y, N66S, D99N
VL: B2 VL
notes: 1A5 VH5 + 4B7VL5; constant regions not specified
B12: HuJS007-58 (antibody, V domains shown)
VH: B1 VH with Q16E, A23T, N66S, M70I, V72R, V89A, V114L
VL: B2 VL with S10F, Q24R, D70E, F73L, I83F
notes: 4B7 VH2-3 + 4B7VL4; constant regions not specified
B13: HuJS007-49 (antibody, V domains shown)
VH: B1 VH with A23T, G26A, P41H, N66S, M70I, V72R, V89A, V114L
VL: B2 VL with S10F, Q24R, D70E, F73L, I83F
notes: 4B7 VH2-2 + 4B7VL4; constant regions not specified
B14: HuJS007-76 (antibody, V domains shown)
VH: B1 VH with T30S, N59Y, N66S, D99N
VL: B2 VL with S10F, Q24R, D70E, F73L, I83F
notes: 1A5 VH5 + 4B7VL4; constant regions not specified
B15: huJS007-106 (antibody, human IgG1, kappa, V domains shown)
VH: B1 VH
VL: B4 VL
B16: HuJS007-75 (antibody, V domains shown)
VH: B1 VH with T30S, N59Y, N66S, D99N
VL: B2 VL with Q24R, F73L, I83F
notes: 1A5 VH5 + 4B7VL3; constant regions not specified
B17: HuJS007-68 (antibody, V domains shown)
VH: B1 VH with G26A, P41H, N66S, M70I, V72R, V89A, V114L
VL: B2 VL
notes: 4B7 VH2-4 + 4B7VL5; constant regions not specified
B18: HuJS007-54 (antibody, V domains shown)
VH: B1 VH with A23T, G26A, P41H, N66S, M70I, V72R, V89A, V114L
VL: B7 VL with R24K, Y87F
notes: 4B7 VH2-2 + 4B7VL9; constant regions not specified
B19: HuJS007-52 (antibody, V domains shown)
VH: B1 VH with A23T, G26A, P41H, N66S, M70I, V72R, V89A, V114L
VL: B7 VL
notes: 4B7 VH2-2 + 4B7VL7; constant regions not specified
B20: HuJS007-65 (antibody, V domains shown)
VH: B1 VH with G26A, P41H, N66S, M70I, V72R, V89A, V114L
VL: B2 VL with Q24R, A43V, F73L, I83V
notes: 4B7 VH2-4 + 4B7VL2; constant regions not specified
B21: HuJS007-66 (antibody, V domains shown)
VH: B1 VH with G26A, P41H, N66S, M70I, V72R, V89A, V114L
VL: B2 VL with Q24R, F73L, I83F
notes: 4B7 VH2-4 + 4B7VL3; constant regions not specified
B22: HuJS007-67 (antibody, V domains shown)
VH: B1 VH with G26A, P41H, N66S, M70I, V72R, V89A, V114L
VL: B2 VL with S10F, Q24R, D70E, F73L, I83F
notes: 4B7 VH2-4 + 4B7VL4; constant regions not specified
B23: HuJS007-84 (antibody, V domains shown)
VH: B1 VH with T30S, P41F, I49M, N59Y, D99N
VL: B2 VL with Q24R, F73L, I83F
notes: 1A5 VH6 + 4B7VL3; constant regions not specified
B24: HuJS007-108 (antibody, V domains shown)
VH: B1 VH
VL: B7 VL with R24K, Y87F
notes: 4B7 VH2-5 + 4B7VL9; constant regions not specified
B25: HuJS007-103 (antibody, V domains shown)
VH: B1 VH
VL: B2 VL with S10F, Q24R, D70E, F73L, I83F
notes: 4B7 VH2-5 + 4B7VL4; constant regions not specified
B26: HuJS007-56 (antibody, V domains shown)
VH: B1 VH with Q16E, A23T, N66S, M70I, V72R, V89A, V114L
VL: B2 VL with Q24R, A43V, F73L, I83V
notes: 4B7 VH2-3 + 4B7VL2; constant regions not specified
B27: HuJS007-81 (antibody, V domains shown)
VH: B1 VH with T30S, N59Y, N66S, D99N
VL: B7 VL with R24K, Y87F
notes: 1A5 VH5 + 4B7VL9; constant regions not specified
B28: HuJS007-61 (antibody, V domains shown)
VH: B1 VH with Q16E, A23T, N66S, M70I, V72R, V89A, V114L
VL: B7 VL
notes: 4B7 VH2-3 + 4B7VL7; constant regions not specified
B29: HuJS007-57 (antibody, V domains shown)
VH: B1 VH with Q16E, A23T, N66S, M70I, V72R, V89A, V114L
VL: B2 VL with Q24R, F73L, I83F
notes: 4B7 VH2-3 + 4B7VL3; constant regions not specified
B30: HuJS007-101 (antibody, V domains shown)
VH: B1 VH
VL: B2 VL with Q24R, A43V, F73L, I83V
notes: 4B7 VH2-5 + 4B7VL2; constant regions not specified
B31: HuJS007-63 (antibody, V domains shown)
VH: B1 VH with Q16E, A23T, N66S, M70I, V72R, V89A, V114L
VL: B7 VL with R24K, Y87F
notes: 4B7 VH2-3 + 4B7VL9; constant regions not specified
B32: HuJS007-74 (antibody, V domains shown)
VH: B1 VH with T30S, N59Y, N66S, D99N
VL: B2 VL with Q24R, A43V, F73L, I83V
notes: 1A5 VH5 + 4B7VL2; constant regions not specified
B33: HuJS007-59 (antibody, V domains shown)
VH: B1 VH with Q16E, A23T, N66S, M70I, V72R, V89A, V114L
VL: B2 VL
notes: 4B7 VH2-3 + 4B7VL5; constant regions not specified
B34: HuJS007-72 (antibody, V domains shown)
VH: B1 VH with G26A, P41H, N66S, M70I, V72R, V89A, V114L
VL: B7 VL with R24K, Y87F
notes: 4B7 VH2-4 + 4B7VL9; constant regions not specified
B35: HuJS007-102 (antibody, V domains shown)
VH: B1 VH
VL: B2 VL with Q24R, F73L, I83F
notes: 4B7 VH2-5 + 4B7VL3; constant regions not specified
B36: HuJS007-90 (antibody, V domains shown)
VH: B1 VH with T30S, P41F, I49M, N59Y, D99N
VL: B7 VL with R24K, Y87F
notes: 1A5 VH6 + 4B7VL9; constant regions not specified
B37: HuJS007-50 (antibody, V domains shown)
VH: B1 VH with A23T, G26A, P41H, N66S, M70I, V72R, V89A, V114L
VL: B2 VL
notes: 4B7 VH2-2 + 4B7VL5; constant regions not specified

molecular target: T1, huCTLA-4 ECD (his-tag); test: ELISA, coated huCTLA-4 his
Procedure: HX1 hCTLA4 his was diluted with PBS (Hyclone) to 1.0 μg/mL, and the dilution was added to a microplate at 100 μL/well. The plate was let stand in an incubator at 37° C. and coated for 90 min and then washed, and 2% BSA was added to the plate at 200 μL/well. The plate was incubated in an incubator at 37° C. for 90 min and then washed. The humanized anti-CTLA-4 antibodies in Table 4 and the control antibody (ipilimumab) were diluted with a diluent (2% BSA) to 1000 ng/mL. The dilution performed each time was not higher than 10-fold. Then, the humanized antibodies and the control antibody were serially diluted 2.5-fold on a sample dilution plate. All the humanized antibody solutions and the control antibody solution were added to a microplate at 100 μL/well. The plate was incubated in an incubator at 37° C. for 60 min and then washed. An HRP-conjugated goat anti-human antibody IgG (Fc specific) was diluted 5000-fold with 2% BSA, and the dilution was added to the microplate at 100 μL/well. The plate was incubated in an incubator at 37° C. for 60 min and then washed. The color development solution TMB was added at 100 μL/well, during which bubbles were avoided. Color development was allowed at 37° C. for 15 min in the dark and then terminated by adding 2 M hydrochloric acid solution at 100 μL/well, during which bubbles were avoided. Reading (wavelength: 450/620 nm) was done within 10 min using a microplate reader.

Binding result, binds:
B1
B2
B3
B4
B5
B6
B7
B8
B9
B10
B11
B12
B13
B14
B15
B16
B17
B18
B19
B20
B21
B22
B23
B24
B25
B26
B27
B28
B29
B30
B31
B32
B33
B34
B35
B36
B37
